Results reported in the DeepSol protein solubility set.

Experiment: soluble on expression in E. coli; label from the status in PepcDB or PDB records

Soluble on expression in E. coli, not soluble:
MGSDKIHHHHHHMGNFHTMLDALLEDQEEAVLATIVQVEGSAYRKAGASMLFKKKGRRIGLLSGGCVEEDVFQRISALGDQLTSTLIPYDMRSEDDLSWGMGAGCNGIIHVHAERITQEKRRHYEKVRDCLHSGKAVTSVIKIESSHYLFLTENGHFGNWPDAPLQDIQRTVSTLHLPHFDQTTNMFIQRIEPKPRLILFGAGPDNVPLANLAADTGFSVIVTDWRPAYCTSSLFPYAYYLITAFPEQMLSEFQFFPHDAAVVATHHYQHDQTIINFLFSQNLHYIGLLGSANRTKRLLSGKHPPSHFYSPVGLKIGAEGPEEIAVSVVAEIIQTRKRVAVV
MGSDKIHHHHHHMLSRQGEYKSWEITEAVLPVASNQEEAKNILTDTNVATITKFYGRYQDFMEMPAPAEKVAEYLNAHALWFSRCAEPMKVQLLGENGYALVIGRFGAFGYEVEPKIGLELLPPEEGIYRIRTIPIPDYQSPGYDVDYRASLQLIENDACSSGEVTRVEWELDLIVDLHFPRFIQRLPKSIIQSTGDRLLNQIVRQVSRRLTRKVQQDFQKSLEIPFSGNSKQKR
KQKKMQAMIVTSKPYCVIKRIHRDLHRGVTCINDAEGTYNHEKKAVLITILTREEFSDFKYLMLKADPKAFVSVAENVHIIGRFVDDD
MGSDKIHHHHHHMIGRKRKYEDPHIRSFHELLSGHNPVLYKKEDLLAYDCDGFTIHKHLPKAVVFPENTREVASIVRYCHDHNLPFLARGAGTGLSGGAIPINGEVIISLVRMKRLLEVDLKNRRAIVEPGYVNLKLTQSIEDKGYYYAPDPSSQYCCTIGGNVAENAGGAHCLKYGVTTNHILGMEVVLPNGDIVEIGKAGILDEPGYDLLGLMTGSEGTLGIVTKITVRILKHPEAKQTVLAYFDKVSDASHTVSDIISEGIVPAALEMMDRIAMEGVEAAAFPIGHLLDAEAVLLIEVDGISAGMDQQIERILTVCRKHHVREVKDEMVGEPKNRLWCHGCHLTRLPRTRWSDPADKASGRAFNDSKNQRNIRATNRKYFSRR
MAHHHHHHMLRGTRGFLAVSPGVGIAPETTPVKYTPMMLNIQNMMWWNGKRNLYRATYREKTWYEISRTGAFTKGRRPVMRQKYSREALQAALAMVPPGFEVADVPRPPQRILAQSEGIVGRWYSNYWTLHSMRYQCLLAGVEWPLGERQRPRTNYDEPFFFADFEESKAIQDYRSRWINVNRSLVGMTKRMKEAEEEARYMQFRKLQDTFWSNRKVLVNRVKSMYNQGARTSAKDMPIKTINIKAFLSE
MSCTRRQFITRVGALAAVSGMAGRVVANTLNINGVRYGMVHDESLCIGCTACMDACREVNTVPEGVSRLTIIRSEPQGTFPDVKYRFFRHSCQHCDHAPCVDVCPTGASFRDAASGIVDVNPDLCVGCQYCIAACPYRVRFIHPVSKTADKCDFCRKTNLKAGKQPACVESCPTKALTFGNLDDPNSDISRLLRQKTTYRYKLALGTKPKVYRVPFNYGEVSQ
MGSDKIHHHHHHMKALVEDDLFSKIGLDDVNSGVYDGEWVKPSGKMLTVKSPIDGSEVAKISLATRADYDRLVSRAIEEFKKWRMIPAPKRGLIIREIGDELRKEKKNLGKIVTIEAGKTPSEGEGEIQEMIDISDLALGLSRQLYGLTIASERPYHRMYEQWVPLGPVAVITSFNFPASVWSWNAFIAAVDGDVVIWKPSSKAALTAVAVMKVIERVLKRNNAPNIFFLMVSSGSEGGDWITNDPRIPLVSFTGSVPVGKKISENVAKRLGKSILELGGNNGAIVSDKADIDLALRGVVFGALATAGQRCTTTRRVIVQEKIYDQFLEKLKNAYSTIKVGDPREKGVLVGPLIDEDAVKDYEHAIDLAIKQGGKLIFGGKRITIKGLEGGHYVMPTIIEAKPDMPIVKEETFASILYVMKYRTIEEAIEIHNSVPQGLSSSIFTTDLREEEAFLSPYGSDCGLANVNTSTAGAEIGGAFGGEKDTGGGRESGSDAWKYYMRRQTVTKNWGQTLPLAQDVVFEF
MTYRVLDPNAQEGSPTEVLVRMYSHPQLRRLYADTEACYTTALADSITGEMRAAFERLRVSDPQMAIPRYVAFHVSGLQQSVVAVPDLVSVSIDKYIRPDYPVYLQFFSEYARQTMSPEYVVRDAVLGWICSERPLPRETVLTLRFQLEYWGDIYRLMKQVFPQASDEWLFGFTSDQLLWMKQNRKILLDNALKRGEMESSQPTVTDRYFKELPPDQLLPPEAPRLIGHWLGTNL
MKAFSSYDEKPPAPPIRFSSSATRENQVVGLKPLPKEPEATKKKKTMPNPFMKKNKDKKEASEKPVISRPSNFEHTIHVGYDPKTGEFTGMPEAWARLLTDSQISKQEQQQNPQAVLDALKYYTQGESSGQKWLQYDMNDAPSRTPSYGLKPQPYSTSSLPYHGNKIQDPRKMNPMTTSTSSAGYNSKQGVPPTTFSVNENRSSMPPSYAPPPVPHGETPADIVPPAIPDRPARTLSIYTKPKEEEEKIPDLSKGQFGVQARGQKAKKKMTDAEVLTKLRTIVSIGNPDRKYRKVDKIGSGASGSVYTAIEISTEAEVAIKQMNLKDQPKKELIINEILVMRENKHANIVNYLDSYLVCDELWVVMEYLAGGSLTDVVTECQMEDGIIAAVCREVLQALEFLHSRHVIHRDIKSDNILLGMDGSVKLTDFGFCAQLSPEQRKRTTMVGTPYWMAPEVVTRKQYGPKVDVWSLGIMAIEMVEGEPPYLNENPLRAIYLIATNGKPDFPGRDSMTLLFKDFVDSALEVQVENRWSASQLLTHPFLRCAKPLASLYYLIVAAKKSIAEASNS
MEKKITQEGLARMIDKGMGTLLALPEIEKKKKSGDLPDNFKMEDGFGVYRVEVGGNEYLCVTNILCNKCERVNGKVKRCEAHKKKRKARKVRKDGDVADDTSDREKLGGLRHVNDEEEEEDKIEGAVTPDFVMTPGIGGAIILVPVDAKNNDRAGPPAKGLNHVKGILVRGAGNIPQFIPNDRLTKAHKLRFDNYIEGELNLVNGKEVFVPNNLGAAKMDEKNAQDVAKAAVADKVDQKVVDAIGKDMVVAVQVDVADNGMPVMKVLEGKPKDKETPVGIIVKANDQVQFVQIVGRELGGGKDAKMMPCTIPENGKVGDVIADVYVNKEGKAVSAKPGDAPAGAPVIGQVIVGQNDQLVFVAKGENKDDAVKKGAKMTPEMKEKLEQAQAKVQAAVTGQSADHIQEQVNRIGVPEAAATSAANGGNNAGGGGSSAEVRSVGFGAQQFGGSQFARPIPAGGGGGGSGGYGAGGGGSGGYGAGGAGGARNSASNGSYGSSANEVKSVGFGAQQYGGSVFAKPSGTGGGYVSAGSSARKSGESGAGGGGAGGGKAGGAKNSASYGSSANEVKSVGFGAQQYGGSVFIRK
MVAERNKDGRVVFDRGLRAQMMAIDGTWRRPCLIEDVSELGAKLTVEGTVEGLNLKEFFLLLSSTGLAYRRCELSWINGDQIGVTFLRLDRKKKRAAQVENA
MSSITKSRSTKKLSQVIVEQLIETIQSGEFKIGEKIPTELELIEQFDVSRSVIREAITELRSLGFVETRHGIGTFVKEQNIEQNFLLSNASLETINDIVALLELRISLESEAVFLASERRKNKHLEKMKIALNDFEAHISSGENDGTVKADYDFHIAIAEASGNQYFVDFLKYLGEKIIPRARVKSIEQSPENREEYLKTVHHDHVNIYNAILDQDGLLARQMMRAHLSKSIKKFKQ
MKKERVDVLAFNQGLFETREKAKRSVMAGLVYNDKNERLDKPGEKISVETPLHTKGQVMPYVSRGGLKLEKALNVFAINVQGKTMLDIGSSTGGFTDVALQNGARLSYALDVGYNQLAWKIRQDERVVVMERTNFRYSKPEDFTEGVPDIATIDVSFISLRLILPPLHDILKKGGSVVALIKPQFEAGKEFVGKKGIVRDPETHQMVVEEITRFAMNNGYDVKNLDFSPITGGEGNIEFLAHLVSVEGEGSYQAPESIEEVVAHAHQKLAE
MSNSDEQILQFYVEHFEKALEKTQNVLLEFAESPLNHLKPTKRATDAQAFQFNSTCPGVENLNKLEREALFQQSSFVNLWLNLAYTCSKSSLSFWDSRDQGSEGGKLEVFMPRLHDSLTTEFHRIHLDPQEFATICAITTWKIHQWGTVEANTVAGQHYLAVIKELNNHHKKTTTMRDFERALRITEIISLLVPIGRMLQEVKTLYETLGIKDDGRE
SKELKEIKSELLNYTDDTLPAMERVDAIRDDLSHWRRSQFATYTYKDADKIRNKIASNIREREKISKELEAYGSTIWPGEEQQTFQRLMRQWKQYLVTMDQYNESMLAGNKTEALAVLSNSLNDFEAVDSDLNELIRLLKVAMDSNKNHILSSVN
MGSDKIHHHHHHMEVQLPKIKTVRVMLAGMTAQQESVFKMAFKMHNTTRYETVSPSDGSAVPDLVLADTDAEGGFELWKELAGRYKAIPVAVCSEKVPDSEVPYLPKPIRFETLFPMLRKLLQGENVYGKSFIAPADRSAKNNGNVQRTVTIRQFNPNKGLLGALRFAEKNRQDIAILHGNKPVLNCFPLDTTGFADRKCVKTRRIVQRRKFAGQLQDCSR
MSICTRKFINKLGFPNFGGESVQIAISGGKGWNWKIYSRHKSCSKMGVKRTLADLDVEAPNDHLLLGVSLANEEPVYQFMPHFDYLKCIKRRKCAKVCEEHAIVTLKDGTPFLMPTLCSGCRACEIVCPVPGAIREMAGDPLEHHHHHH

Soluble on expression in E. coli, soluble:
MQDEYYMARALKLAQRGRFTTHPNPNVGCVIVKDGEIVGEGYHQRAGEPHAEVHALRMAGEKAKGATAYVTLEPCSHHGRTPPCCDALIAAGVARVVASMQDPNPQVAGRGLYRLQQAGIDVSHGLMMSEAEQLNKGFLKRMRTGFPYIQLKLGASLDGRTAMASGESQWITSPQARRDVQLLRAQSHAILTSSATVLADDPALTVRWSELDEQTQALYPQQNLRQPIRIVIDSQNRVTPVHRIVQQPGETWFARTQEDSREWPETVRTLLIPEHKGHLDLVVLMMQLGKQQINSIWVEAGPTLAGALLQAGLVDELIVYIAPKLLGSDARGLCTLPGLEKLADAPQFKFKEIRHVGPDVCLHLVGA
SEDEWQCTECKKFNSPSKRYCFRCWALRKDWYSDCSKLTH
MALVRFSPLYEFDRELGTLQRQMSRFLQPWPWTEAELKELSFAPAVEVKETDAAIELRVELPGIDPKDLDLQVTAEAVVLKGERRSEDRSEAEGVLRTEFRYGAFERVIPLPAQVKNTEAQADYQNGILVLTLPKRDEELHKVVKVDLGHLAAAPVAAEACERLEHHHHHH
MELRAVQEVLKEERLDGWLLYSFGGSNPLALEVLGLAHLHLTRRFAYLIPREGAPTLLCHAIEASLFPPLPGNRKTYHTWRGFLEGLAHLLGGMRRVALEYVPGGQIPYLSRVDGGTLDLLRGLGLELASSWPLLLLFQTWDEERLQSHRRAAAGLARAKDLALDFLRQNPEASEREVQSVLVRALEGEGLIFDHPPMVAFGKNAANPHHEPSEVRLEEGAVVLLDLWAKAPGGVYADLTWMAGKRPPEAAHRAFQAVARARDEAIAFVERAYREGRYPKGFEVDRLARKVLEEEGYGPYIRHRTGHNLGEEVHGSGPHLDDLETHDLRPLVPGLAFTVEPGVYLEAFGVRTEVDVYLHPTGPEVTTPLQEAITPL
MAQPQLYLPEPFKIAYRKVGQCRRFQQLKKKNGSFKRKGIERWHRAVSTNLLKQNVLVPKEESSSDSDMGFHESQQNQKSNLKTKVKTAFGRMLSYKYRSKPACASQEGSTDHKEALLSNTQSLLPRIVKEFSSPKLFTAKMRKLSENATIQLDVVEAETEEITQGNTLLRARRTTKRLSVTSLPSGLQKGPYSPKKRPHFPALKKKKRGMENILRKSDLTVGKLQMQVDDLIETVTDKSMKLLAQRHAELQQCEFLGDEILQSSKQFQRISKRTMRKYKLKNMTTKGPGDS
